Data as given in US20140363495A1.

Tests used:
[1] = target: HLA-A2 molecules on T2A2 cells (human); assay: flow cytometry, upregulation of HLA-A2 on T2A2 cells, peptide 12.5 µg/mL, negative control; settings: remark: other sources report otherwise
[2] = target: HLA-A2 molecules on T2A2 cells (human); assay: flow cytometry, upregulation of HLA-A2 on T2A2 cells, peptide 25 µg/mL, negative control; settings: remark: other sources report otherwise

T2 Binding (MFI) [1]: 109 MFI
T2A2 Binding (MFI) [2]: 83.8 MFI
B1: CAP-7 (peptide)
peptide: HLFGYSWYK
